Results taken from patent US20110262445A1 (CEPHALON AUSTRALIA, published 2011).
Positions count from the first letter of the chain named. Numbers in names are those of the source.

T1: human IL-23 (human, UniProt P29460 23-328; Q9NPF7 20-189)
T1 construct: Recombinant (Ebioscience); HIS-tagged in flow cytometry, biotinylated in some assays; also called hIL-23; rhIL-23
T1 sequence 1: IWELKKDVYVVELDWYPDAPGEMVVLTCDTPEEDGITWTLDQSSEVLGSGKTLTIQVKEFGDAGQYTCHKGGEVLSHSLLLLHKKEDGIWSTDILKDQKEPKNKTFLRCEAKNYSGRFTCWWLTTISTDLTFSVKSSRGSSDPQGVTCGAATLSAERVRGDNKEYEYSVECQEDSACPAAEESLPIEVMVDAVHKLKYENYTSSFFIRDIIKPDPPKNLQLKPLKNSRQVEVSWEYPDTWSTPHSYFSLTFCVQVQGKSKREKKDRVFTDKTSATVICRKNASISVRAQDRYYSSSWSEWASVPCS
T1 sequence 2: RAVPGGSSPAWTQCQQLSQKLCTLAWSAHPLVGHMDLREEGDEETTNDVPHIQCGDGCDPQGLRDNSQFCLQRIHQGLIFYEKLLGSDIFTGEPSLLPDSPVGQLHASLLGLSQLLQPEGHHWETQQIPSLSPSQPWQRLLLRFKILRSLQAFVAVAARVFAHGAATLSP

T2: human IL-12 (human, UniProt P29460 23-328; P29459 23-219)
T2 construct: Recombinant (Peprotech); FLAG-tagged IL-12 in the flow cytometry assays, biotinylated in the IL-12Rβ2 assay; also called hIL-12
T2 sequence 1: T1 sequence 1
T2 sequence 2: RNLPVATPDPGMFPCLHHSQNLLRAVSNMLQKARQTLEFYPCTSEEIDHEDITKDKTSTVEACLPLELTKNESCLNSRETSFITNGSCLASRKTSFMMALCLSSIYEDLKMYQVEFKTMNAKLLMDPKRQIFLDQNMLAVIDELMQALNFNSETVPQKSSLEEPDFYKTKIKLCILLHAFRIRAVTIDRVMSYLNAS

B1: scFv combo. # 13 (scFv)
scFv: QVQLVQSGAEVKKPGASVKVSCKASGYAFTDYYLHWVRQAPGRGLEWMGWIDPENGDTEYAPKFQGRVTMTTDTSTSTAYMELRSLRSDDTAVYYCNANKELRYFDVWGQGTMVTVSSGGGGSGGGGSGGGGSEIVMTQSPATLSVSPGERATLSCRASQSISINLHWYQQKPGQAPRLLIYFASQSTSGIPARFSGSGSGTEFTLTISSLQSEDFAVYYCQQSNSFPLTFGGGTKVEIKR
notes: scFv-80 with VH T28A, Q43R; VL I55T; not shown: proprietary C-terminal FLAG tag
B2: scFv combo. # 14 (scFv)
scFv: B1 scFv with A28T, F29L
notes: scFv-80 with VH F29L, Q43R; VL I55T; not shown: proprietary C-terminal FLAG tag
B3: Antibody 108 (antibody, human IgG1, kappa, V domains shown)
VH: EVQLVQSGAEVKKPGATVKISCKASGYTISDYYLHWVRQAPEKGLEWMGWIDPENGDTEYAPKFQGRVTITADTSTDTGYLELSSLRSEDTAVYYCAANKELRYFDVWGQGTLVTVSS
VL: DIQMTQSPSSVSASVGDRVTITCRASQSISINLHWYQQKPGKAPKLLIYFASQSISGVPSRFSGSGSGTDFSLTINSLQPEDFARYYCQQSNSFPLTFGGGTKVEIKR
B4: Antibody 117 (antibody, human IgG1, kappa, V domains shown)
VH: B3 VH with I29F, D77N
VL: B3 VL
B5: Antibody 114 (antibody, human IgG1, kappa, V domains shown)
VH: B3 VH with I29F, I70M
VL: B3 VL
B6: Antibody 113 (antibody, human IgG1, kappa, V domains shown)
VH: B3 VH with I29F, V68A
VL: B3 VL
B7: Antibody 124 (antibody, human IgG1, kappa)
heavy chain: not shown
light chain: DIQMTQSPSSVSASVGDRVTITCRASQSISINLHWYQQKPGKAPKLLIYFASQSISGVPSRFSGSGSGTDFSLTINSLQPEDFARYYCQQSNSFPLTFGGGTKVEIKRTVAAPSVFIFPPSDEQLKSGTASVVCLLNNFYPREAKVQWKVDNALQSGNSQESVTEQDSKDSTYSLSSTLTLSKADYEKHKVYACEVTHQGLSSPVTKSFNRGEC
B8: Antibody 119 (antibody, human IgG1, kappa, V domains shown)
VH: B3 VH with I29F, L81M
VL: B3 VL
B9: Antibody 109 (antibody, human IgG1, kappa, V domains shown)
VH: B3 VH with I29F, S30K
VL: B3 VL
B10: Antibody 110 (antibody, human IgG1, kappa, V domains shown)
VH: B3 VH with I29F, R38K
VL: B3 VL
B11: Antibody 112 (antibody, human IgG1, kappa, V domains shown)
VH: B3 VH with I29F, M48I
VL: B3 VL
B12: Antibody 122 (antibody, human IgG1, kappa, V domains shown)
VH: B3 VH with I29F, R87T
VL: B3 VL
B13: Antibody 118 (antibody, human IgG1, kappa, V domains shown)
VH: B3 VH with I29F, G79A
VL: B3 VL
B14: Antibody 120 (antibody, human IgG1, kappa, V domains shown)
VH: B3 VH with I29F, E82Q
VL: B3 VL
B15: Antibody 115 (antibody, human IgG1, kappa, V domains shown)
VH: B3 VH with I29F, A72T
VL: B3 VL
B16: Antibody 121 (antibody, human IgG1, kappa, V domains shown)
VH: B3 VH with I29F, S84R
VL: B3 VL
B17: Antibody 116 (antibody, human IgG1, kappa, V domains shown)
VH: B3 VH with I29F, T76S
VL: B3 VL
B18: Antibody 123 (antibody, human IgG1, kappa, V domains shown)
VH: B3 VH with I29F, E89D
VL: B3 VL
B19: scFv AY-B2 (scFv)
scFv: B1 scFv with A28T, R43Q, M70V, T188I
notes: scFv-80 variant: VH M69V; not shown: proprietary C-terminal FLAG tag
B20: scFv BV-B2 (scFv)
scFv: B1 scFv with A28T, R43Q, T188I, D215G
notes: scFv-80 variant: VL D82G; not shown: proprietary C-terminal FLAG tag
B21: scFv CL-G7 (scFv)
scFv: B1 scFv with E10Q, A28T, R43Q, T188I
notes: scFv-80 variant: VH E10Q; not shown: proprietary C-terminal FLAG tag
B22: scFv AY-G7 (scFv)
scFv: B1 scFv with A28T, R43Q, T188I, Y219H
notes: scFv-80 variant: VL Y86H; not shown: proprietary C-terminal FLAG tag
B23: scFv BY-B4 (scFv)
scFv: B1 scFv with R43Q, T188I
notes: scFv-80 variant: VH T28A; not shown: proprietary C-terminal FLAG tag
B24: scFv BZ-G10 (scFv)
scFv: B1 scFv with A28T, R43Q, Q160R, T188I
notes: scFv-80 variant: VL Q27R; not shown: proprietary C-terminal FLAG tag
B25: scFv CW-H1 (scFv)
scFv: B1 scFv with A28T, R43Q, S185R, T188I
notes: scFv-80 variant: VL S52R; not shown: proprietary C-terminal FLAG tag
B26: scFv CE-A6 (scFv)
scFv: B1 scFv with A28T, R43Q, T188I, G197S
notes: scFv-80 variant: VL G64S; not shown: proprietary C-terminal FLAG tag
B27: scFv AZ-D8 (scFv)
scFv: B1 scFv with Y27C, A28T, R43Q, T188I
notes: scFv-80 variant: VH Y27C; not shown: proprietary C-terminal FLAG tag
B28: scFv CW-H7 (scFv)
scFv: B1 scFv with A28T, R43Q, V146M, T188I
notes: scFv-80 variant: VL V13M; not shown: proprietary C-terminal FLAG tag

Molecular target: T1, human IL-23
Assay: SPR, single 81 nM analyte, scFv via FLAG

Row | Kd | koff | kon | Binder
1 | 0.051 nM | 1.3e-05 s⁻¹ | 250000 M⁻¹ s⁻¹ | B1
2 | 0.079 nM | 2.1e-05 s⁻¹ | 270000 M⁻¹ s⁻¹ | B2

Molecular target: T2, human IL-12
Assay: ELISA, coated IL-12
How it was run: (§1)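 Binding values are absorbance readings. After cytokine (1 μg/mL, carbonate buffer pH 9.6) was coated onto Maxisorp plates overnight at 4° C and the plates were blocked with 1% BSA in PBS, antibody titrations were bound for 1 hour at 25° C and detected with HRP-linked goat anti-human IgG or anti-murine immunoglobulin (1:2000). Color from TMB, stopped with 1M HCl, was read at 450 nm with 620 nm as reference.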

Row | binding result | Binder
3 | binds | B3
4 | binds | B4
5 | binds | B5
6 | binds | B6
7 | binds | B7
8 | binds | B8
9 | binds | B9
10 | binds | B10
11 | binds | B11
12 | binds | B12
13 | binds | B13
14 | binds | B14
15 | binds | B15
16 | binds | B16
17 | binds | B17
18 | binds | B18

Molecular target: T1, human IL-23
Assay: SPR screen, crude scFv captured via FLAG
Description: Approximately 6500 individual scFvs recovered from the ribosome display reactions were expressed and screened for binding against IL-23 using a high-throughout SPR assay. The variants were ranked according to the kd and the best variants were sequenced at the nucleic acid level.
High-throughput SPR screening was conducted using a BIAcore A100 biosensor (GE Healthcare). Approximately 10 000 RU of the proprietary FLAG-specific capture molecule was immobilized on a CM5 Series S Sensor chip, using standard amine coupling chemistry on Spots 1 & 5 (outer spots) and 3,000RU to Spots 2 & 4 (inner spots) in each of the four flow cells of the BIAcore A100 Biosensor. The running buffer used was HBS-EP+ (BIAcore) and all interactions measured at 25° C. Crude periplasmic preparations of FLAG-tagged scFvs (prepared as described in the previous paragraph), were diluted two-fold in running buffer before capturing at a flow rate of 5u1/min for 60 sec. Approx. 100RU (on outer spots) and 50RU (on inner spots) of tagged scFv was captured. Following a 2 min stabilization period, IL-23 was passed over all spots of all four flow cells simultaneously at a flow rate of 30u1/min for 120 sec and dissociation monitored for 200 sec. Generated sensorgrams were referenced against the unmodified spot 3 of each flow cell, and fitted using a 1:1 Langmuir equation with R1 set to local to account for varying ligand densities to generate the kₐ, kd and KD values.

Row | koff | Binder
19 | 0.0001 s⁻¹ | B19
20 | 0.00029 s⁻¹ | B20
21 | 0.00012 s⁻¹ | B21
22 | 0.00012 s⁻¹ | B22
23 | 0.00033 s⁻¹ | B23
24 | 0.00036 s⁻¹ | B24
25 | 0.00016 s⁻¹ | B25
26 | 0.00033 s⁻¹ | B26
27 | 4.3e-05 s⁻¹ | B27
28 | 0.000278 s⁻¹ | B28

Molecular target: T1, human IL-23
Assay: ELISA, coated IL-23
How it was run: as §1

Row | binding result | Binder
29 | binds | B3
30 | binds | B4
31 | binds | B5
32 | binds | B6
33 | binds | B7
34 | binds | B8
35 | binds | B9
36 | binds | B10
37 | binds | B11
38 | binds | B12
39 | binds | B13
40 | binds | B14
41 | binds | B15
42 | binds | B16
43 | binds | B17
44 | binds | B18
